Patent publication US20230406937A1 (JANUX THERAPEUTICS, published 2023)

Tests used:
[1] = molecular target: T1, biotinylated human PD-L1 (human, UniProt Q9NZQ7 19-238, limits assumed, biotinylated (site not stated)); test: ELISA, biotinylated antigen captured on neutravidin plates, HRP secondary antibody
T1 construct: also called Human PDL1-biotin
Protocol: (§1) The polypeptide complex molecules were evaluated for their ability to bind human PDL1 or CD28 in a standard enzyme linked immunosorbent assay (ELISA) format. […] Polypeptide complex molecules diluted in buffer were then added to the antigen coated plates. Bound polypeptide complex was detected using a standard horse radish peroxidase conjugate secondary antibody.

[2] = molecular target: T2, biotinylated human CD28 (human, UniProt P10747 19-152, limits assumed, biotinylated (site not stated)); test: as above
T2 construct: also called Human CD28-Biotin
Protocol: as §1

B1: Ab-5 (bispecific antibody)
light: QSALTQPASVSGSPGQSITISCTGTSSDVGGYNYVSWYQQHPGKAPKLMIYDVSNRPSGVSNRFSGSKSGNTASLTISGLQAEDEADYYCSSYTSSSTRVFGTGTKVTVLGQPKANPTVTLFPPSSEELQANKATLVCLISDFYPGAVTVAWKADGSPVKAGVETTKPSKQSNNKYAASSYLSLTPEQWKSHRSYSCQVTHEGSTVEKTVAPTECS
heavy: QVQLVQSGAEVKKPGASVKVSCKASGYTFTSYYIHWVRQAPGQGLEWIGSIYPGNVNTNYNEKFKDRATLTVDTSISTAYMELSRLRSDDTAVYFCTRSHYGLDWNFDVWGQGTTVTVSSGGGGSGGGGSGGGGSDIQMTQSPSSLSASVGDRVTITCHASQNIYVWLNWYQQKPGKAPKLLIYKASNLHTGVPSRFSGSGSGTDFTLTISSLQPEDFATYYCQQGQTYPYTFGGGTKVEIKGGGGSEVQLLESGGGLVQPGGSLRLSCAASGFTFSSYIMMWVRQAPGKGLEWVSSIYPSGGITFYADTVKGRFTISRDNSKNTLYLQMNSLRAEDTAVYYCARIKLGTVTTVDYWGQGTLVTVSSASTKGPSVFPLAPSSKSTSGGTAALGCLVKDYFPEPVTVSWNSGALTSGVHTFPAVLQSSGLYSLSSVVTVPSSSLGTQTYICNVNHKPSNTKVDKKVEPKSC
notes: Anti-CD28 scFv fused to the heavy chain of anti-PD-L1 Fab 3; no Fc
How did the EC50 [1] turn out when B1 was run?
The EC50 was 0.11 nM.

What about the EC50 [2] of the same binder?
The EC50 was 0.91 nM.

B2: Ab-6 (bispecific antibody)
light: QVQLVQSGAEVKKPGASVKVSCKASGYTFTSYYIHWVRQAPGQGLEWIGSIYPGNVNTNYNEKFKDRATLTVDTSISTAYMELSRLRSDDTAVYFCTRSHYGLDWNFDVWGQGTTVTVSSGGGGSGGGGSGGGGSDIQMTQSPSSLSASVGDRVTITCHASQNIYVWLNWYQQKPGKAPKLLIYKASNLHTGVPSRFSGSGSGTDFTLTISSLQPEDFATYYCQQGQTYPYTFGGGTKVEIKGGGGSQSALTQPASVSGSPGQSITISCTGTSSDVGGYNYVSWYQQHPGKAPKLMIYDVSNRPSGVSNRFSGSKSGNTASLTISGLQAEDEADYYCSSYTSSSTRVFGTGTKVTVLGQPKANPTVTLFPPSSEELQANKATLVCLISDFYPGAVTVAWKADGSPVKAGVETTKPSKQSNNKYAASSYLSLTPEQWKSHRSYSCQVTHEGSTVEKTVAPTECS
heavy: EVQLLESGGGLVQPGGSLRLSCAASGFTFSSYIMMWVRQAPGKGLEWVSSIYPSGGITFYADTVKGRFTISRDNSKNTLYLQMNSLRAEDTAVYYCARIKLGTVTTVDYWGQGTLVTVSSASTKGPSVFPLAPSSKSTSGGTAALGCLVKDYFPEPVTVSWNSGALTSGVHTFPAVLQSSGLYSLSSVVTVPSSSLGTQTYICNVNHKPSNTKVDKKVEPKSC
notes: Anti-CD28 scFv fused to the light chain of anti-PD-L1 Fab 3; no Fc
What does the source list for B2?
EC50 [1]: 0.28 nM; EC50 [2]: 1.89 nM
